Consider one protein from US20050277575.

This series concerns the target T1, Glu-plasminogen (Calbiochem), P00747.
T1 chain: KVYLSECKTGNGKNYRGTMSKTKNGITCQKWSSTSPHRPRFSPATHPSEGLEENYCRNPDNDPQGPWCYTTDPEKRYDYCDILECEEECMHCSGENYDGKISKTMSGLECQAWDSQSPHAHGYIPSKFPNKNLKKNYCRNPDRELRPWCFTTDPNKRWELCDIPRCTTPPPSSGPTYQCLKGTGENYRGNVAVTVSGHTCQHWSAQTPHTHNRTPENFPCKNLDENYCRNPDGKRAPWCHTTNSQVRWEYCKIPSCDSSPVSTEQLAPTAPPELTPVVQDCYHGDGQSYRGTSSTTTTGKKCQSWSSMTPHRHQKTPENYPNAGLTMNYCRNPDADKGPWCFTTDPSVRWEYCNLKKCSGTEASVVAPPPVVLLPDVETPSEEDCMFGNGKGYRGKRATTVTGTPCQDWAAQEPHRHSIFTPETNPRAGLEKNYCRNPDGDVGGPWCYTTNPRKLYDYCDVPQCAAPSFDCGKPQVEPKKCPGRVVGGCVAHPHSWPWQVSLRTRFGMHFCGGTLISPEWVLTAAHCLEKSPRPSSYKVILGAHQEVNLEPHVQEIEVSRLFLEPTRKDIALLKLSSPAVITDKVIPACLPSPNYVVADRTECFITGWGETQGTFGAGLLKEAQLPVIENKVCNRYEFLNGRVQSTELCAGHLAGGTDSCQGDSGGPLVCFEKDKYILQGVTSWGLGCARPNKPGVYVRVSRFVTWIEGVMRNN

B1: tissue type plasminogen activator (t-PA, Calbiochem) (protein)
chain: SYQVICRDEKTQMIYQQHQSWLRPVLRSNRVEYCWCNSGRAQCHSVPVKSCSEPRCFNGGTCQQALYFSDFVCQCPEGFAGKCCEIDTRATCYEDQGISYRGTWSTAESGAECTNWNSSALAQKPYSGRRPDAIRLGLGNHNYCRNPDRDSKPWCYVFKAGKYSSEFCSTPACSEGNSDCYFGNGSAYRGTHSLTESGASCLPWNSMILIGKVYTAQNPSAQALGLGKHNYCRNPDGDAKPWCHVLKNRRLTWEYCDVPSCSTCGLRQYSQPQFRIKGGLFADIASHPWQAAIFAKHRRSPGERFLCGGILISSCWILSAAHCFQERFPPHHLTVILGRTYRVVPGEEEQKFEVEKYIVHKEFDDDTYDNDIALLQLKSDSSRCAQESSVVRTVCLPPADLQLPDWTECELSGYGKHEALSPFYSERLKEAHVRLYPSSRCTSQHLLNRTVTDNMLCAGDTRSGGPQANLHDACQGDSGGPLVCLNDGRMTLVGIISWGLGCGQKDVPGVYTKVTNYLDWIRDNMRP
Take B1: the Km of t-PA-mediated plasminogen conversion in the presence of S100A4 (EGTA) was 0.059 µM and the Km of t-PA-mediated plasminogen conversion, basal reaction (EGTA) was determined as 0.429 µM.
